US20240360194A1, “New Peptides as Potent and Selective GIP Receptor Agonists” (Sanofi, priority 2021, published 2024)
Numbered stars: 1 amine (or outer) side, 2 acyl side, 3 side chain; on linkers, the order of the positions; unused ones are H or OH. Square brackets hold non-standard residues; d marks the D form. Side chains are listed from the residue outwards. Ends that are not written are not given here. * marks the point of attachment. C18 diacid = O=C(O)CCCCCCCCCCCCCCCCC(=O)*; γGlu = O=C(O)[C@H](CCC(=O)[*:2])N[*:1]; Iva = CC[C@](C)(N)C(=O)O; AEEA = NCCOCCOCC(=O)O; Aib = CC(C)(N)C(=O)O

T1: human GIP receptor (human, UniProt P48546 22-466)
T1 sequence (looked up): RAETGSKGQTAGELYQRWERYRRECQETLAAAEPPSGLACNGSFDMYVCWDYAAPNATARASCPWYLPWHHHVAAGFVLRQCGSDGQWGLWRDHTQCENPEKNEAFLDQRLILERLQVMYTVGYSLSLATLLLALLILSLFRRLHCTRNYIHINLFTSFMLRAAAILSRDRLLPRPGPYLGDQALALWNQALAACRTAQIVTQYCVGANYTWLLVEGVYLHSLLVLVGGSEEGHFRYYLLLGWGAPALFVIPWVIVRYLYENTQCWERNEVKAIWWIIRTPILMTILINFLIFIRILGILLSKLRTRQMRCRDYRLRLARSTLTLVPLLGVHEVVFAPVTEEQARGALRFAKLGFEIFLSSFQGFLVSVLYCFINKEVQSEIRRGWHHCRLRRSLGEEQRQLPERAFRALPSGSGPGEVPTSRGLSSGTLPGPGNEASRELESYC

T2: human GIP receptor (human), P48546
T2 chain: T1 sequence (looked up)

T3: human GLP-1 receptor (human), P43220
T3 chain: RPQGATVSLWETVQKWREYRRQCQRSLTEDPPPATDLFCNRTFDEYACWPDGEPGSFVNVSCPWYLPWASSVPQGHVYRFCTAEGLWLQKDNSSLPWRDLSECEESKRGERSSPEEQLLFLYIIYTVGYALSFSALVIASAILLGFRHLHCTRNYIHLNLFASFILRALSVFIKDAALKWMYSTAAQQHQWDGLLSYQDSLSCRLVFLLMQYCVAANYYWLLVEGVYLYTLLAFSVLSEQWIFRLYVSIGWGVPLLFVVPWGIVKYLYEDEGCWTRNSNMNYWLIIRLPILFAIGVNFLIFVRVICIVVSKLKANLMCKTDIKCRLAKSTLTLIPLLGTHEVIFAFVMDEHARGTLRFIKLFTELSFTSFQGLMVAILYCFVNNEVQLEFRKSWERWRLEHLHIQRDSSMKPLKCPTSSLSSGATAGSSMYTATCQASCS

B1: SEQ ID NO: 19 (peptide)
peptide: Y[Aib]EGTFISDLSI[Aib]K([AEEA-AEEA-γGlu-C18 diacid])EEIHQ[Aib]EFIEWLLAQGPSSGAPPPS-NH2
modifications: N-terminus assumed
SMILES: CC[C@H](C)[C@H](NC(=O)[C@H](CCC(=O)O)NC(=O)[C@H](CCC(=O)O)NC(=O)[C@H](CCCCNC(=O)COCCOCCNC(=O)COCCOCCNC(=O)CC[C@H](NC(=O)CCCCCCCCCCCCCCCCC(=O)O)C(=O)O)NC(=O)C(C)(C)NC(=O)[C@@H](NC(=O)[C@H](CO)NC(=O)[C@H](CC(C)C)NC(=O)[C@H](CC(=O)O)NC(=O)[C@H](CO)NC(=O)[C@@H](NC(=O)[C@H](Cc1ccccc1)NC(=O)[C@@H](NC(=O)CNC(=O)[C@H](CCC(=O)O)NC(=O)C(C)(C)NC(=O)[C@@H](N)Cc1ccc(O)cc1)[C@@H](C)O)[C@@H](C)CC)[C@@H](C)CC)C(=O)N[C@@H](Cc1c[nH]cn1)C(=O)N[C@@H](CCC(N)=O)C(=O)NC(C)(C)C(=O)N[C@@H](CCC(=O)O)C(=O)N[C@@H](Cc1ccccc1)C(=O)N[C@H](C(=O)N[C@@H](CCC(=O)O)C(=O)N[C@@H](Cc1c[nH]c2ccccc12)C(=O)N[C@@H](CC(C)C)C(=O)N[C@@H](CC(C)C)C(=O)N[C@@H](C)C(=O)N[C@@H](CCC(N)=O)C(=O)NCC(=O)N1CCC[C@H]1C(=O)N[C@@H](CO)C(=O)N[C@@H](CO)C(=O)NCC(=O)N[C@@H](C)C(=O)N1CCC[C@H]1C(=O)N1CCC[C@H]1C(=O)N1CCC[C@H]1C(=O)N[C@@H](CO)C(N)=O)[C@@H](C)CC
notes: Synthetic peptide, 39 residues
B2: SEQ ID NO: 38 (peptide)
peptide: Y[Aib]EGTFISDLSI[Aib]LEEQKQ[Aib]EFIEWLLAQGPSSGEPPPS-NH2
B3: SEQ ID NO: 24 (peptide)
peptide: H-Y[Aib]EGT[Iva]ISDLSI[Aib]K([AEEA-AEEA-γGlu-C18 diacid])DRIHQEEFIEWLLAQGPSSGAPPPS-NH2
notes: as for B1

Columns and labels:
human GLP-1 receptor [1] = molecular target: T4, human GLP-1 receptor (human, UniProt P43220 24-463); experiment: cell-based or functional assay
human GIP receptor [2] = molecular target: T1, human GIP receptor; experiment: cell-based or functional assay
human GIP receptor [3] = molecular target: T1, human GIP receptor; experiment: cell-based or functional assay; remark: listed apart in the source
human GIP receptor [4] = molecular target: T1, human GIP receptor; experiment: displacement of [125I]GIP from HEK-293 membranes expressing hGIPR (SPA beads)
[5] = molecular target: T2, human GIP receptor (human), P48546; experiment: cell-based or functional assay
[6] = molecular target: T2, human GIP receptor (human), P48546; experiment: displacement of [125I]GIP from HEK-293 membranes expressing hGIPR (SPA beads)
[7] = molecular target: T3, human GLP-1 receptor (human), P43220; experiment: displacement of [125I]GLP-1 from HEK-293 membranes expressing hGLP-1R (SPA beads)
human GLP-1 receptor [8] = molecular target: T4, human GLP-1 receptor; experiment: as above

Binder | EC50 hGLP-1R 0.1% BSA (cAMP, HEK-293) (human GLP-1 receptor [1]) [nM] | EC50 hGIPR 0% HSA (cAMP, HEK-293) (human GIP receptor [2]) [nM] | EC50 hGIPR 0.1% BSA (cAMP, HEK-293) (human GIP receptor [2]) [nM] | EC50 hGIPR 0.1% HSA (cAMP, HEK-293) (human GIP receptor [2]) [nM] | hGIPR EC50 (cAMP, human adipocytes) (human GIP receptor [3]) [nM] | hGIPR Emax (cAMP, human adipocytes) (human GIP receptor [3]) [%] | IC50 (human GIP receptor [4]) [nM] | EC50 hGIPR 0% HSA (cAMP, HEK-293) [5] [nM] | EC50 hGIPR 0.1% BSA (cAMP, HEK-293) [5] [nM] | hGIPR EC50 (cAMP, human adipocytes) [5] [nM] | hGIPR Emax (cAMP, human adipocytes) [5] [%] | IC50 [6] [nM] | IC50 [7] [nM] | IC50 (human GLP-1 receptor [8]) [nM]
B1 | > 10 | 0.0002 | 0.0378 | 0.0015 | 8 | 94 | 2 | – | – | – | – | – | – | –
B2 | – | – | – | – | – | – | – | 0.00019 | 0.0531 | 0.4 | 92 | 0.2 | 73 | –
B3 | > 10 | 0.00056 | 0.0366 | – | 0.2 | 100 | 0.1 | – | – | – | – | – | – | 188
